The target of assay [1] is T1, BDG17.053 complexed with hIL-2 (human, UniProt P60568 21-153).
T1 construct: Humanized IgG1 captured on the SPR chip and saturated with 50 nM hIL-2
Nature of the assay: SPR, captured antibody saturated with 50 nM hIL-2, then CD25 and CD122 injected in both orders. The protocol: (§1) To test specific binding of the humanized antibodies IL-2 complex to CD122 and CD25, antibodies BDG17.038, BDG17.043, BDG17.053, BDG17.054, BDG17.067, BDG17.069 (See, Tables 6 and 7 of Example 2 for sequence information for these clones) were immobilized to an a capture antibody attached to CM5 chip channel to a target RU of approximately 300 RU as described above. Subsequently, 50 nM IL-2 was injected till the respective antibody was saturated with hIL-2. Then the Ab-IL-2 complex was washed with PBS-T buffer for 60 sec and 1000 nM of CD25 was injected and monitored for response. Subsequently, running buffer was injected for 60 seconds to reach a steady baseline, and then 1000 nM of CD122 was injected for 30 seconds in a flow rate of 30 ul/min. To test CD122 binding, the same experiment was repeated in reverse order, with CD122 injected first flowed by injection of CD25.
A general note: In SPR one partner is held on a chip, and binding of the other changes the refractive index at the surface.

Assay [2] addresses T2, BDG17.043 complexed with hIL-2 (human, UniProt P60568 21-153).
T2 construct: Humanized IgG1 captured on the SPR chip and saturated with 50 nM hIL-2; also called BDG17.043/hIL-2
As to the kind of experiment: SPR, captured BDG17.043 loaded with 50 nM hIL-2, CD25 injected before CD122. An excerpt: (§2) FIGS. 17A-17B. Present receptor discrimination of indicated antibody/IL-2 complex by tracing of SPR response. Antibody was immobilized to the CM5 chip, and hIL-2, CD122, and CD25 were streamed as indicated with an arrow. FIG. 17A presents a schematic order of injection of compounds to SPR chip, that represents sequential anti-IL-2 antibodies complexed with human IL-2 (hIL2), binding to CD122 but not to CD25.

The target in assay [3] is T3, BDG17.054 complexed with hIL-2 (human, UniProt P60568 21-153).
T3 construct: Humanized IgG1 captured on the SPR chip and saturated with 50 nM hIL-2; also called BDG17.054/hIL-2
Nature of the assay: SPR, captured BDG17.054 loaded with 50 nM hIL-2, CD25 injected before CD122 and again after CD122.
Excerpt: as §2, §1

The target in assay [4] is T4, BDG17.069 complexed with hIL-2 (human, UniProt P60568 21-153).
T4 construct: Humanized IgG1 LALA captured on the SPR chip and saturated with 50 nM hIL-2
As to the kind of experiment: SPR, captured BDG17.069 loaded with hIL-2, CD25 injected before CD122 and again after CD122.
Excerpt: as §2

Assay [5] addresses T5, BDG17.066 complexed with hIL-2 (human, UniProt P60568 21-153).
T5 construct: Humanized IgG1 LALA on the SPR chip saturated with hIL-2
Nature of the assay: SPR, captured BDG17.066 loaded with hIL-2, CD25 injected before CD122 and again after CD122.
Excerpt: as §2

For assay [6], the target named is T6, BDG17.067 complexed with hIL-2 (human, UniProt P60568 21-153).
T6 construct: Humanized IgG1 LALA captured on the SPR chip and saturated with 50 nM hIL-2; also called BDG17.0067 complexed with hIL-2
As to the kind of experiment: SPR, captured BDG17.067 loaded with hIL-2, CD25 injected before CD122 and again after CD122.
Excerpt: as §2, §1

For assay [7], the target named is T7, BDG17.038 complexed with hIL-2 (human, UniProt P60568 21-153).
T7 construct: Humanized IgG1 captured on the SPR chip and saturated with 50 nM hIL-2; also called BDG17.038/hIL-2
As to the kind of experiment: SPR, captured BDG17.038 loaded with 50 nM hIL-2, CD25 injected before CD122.
Excerpt: as §2

Another assay deals with T8, BDG17.023-hIL-2 complex (human, UniProt P60568 21-153).
T8 construct: BDG17.023 (human IgG1 chimera) on the SPR chip saturated with 50 nM hIL-2; also called BDG17.023-IL-2 complex; Ab-IL-2 complex
Nature of the assay: SPR, BDG17.023 on the CM5 chip loaded with 50 nM hIL-2, CD122 then CD25 1000 nM. The protocol: To test specific binding to CD25, BDG17.023 was immobilized to the CM5 chip to a target RU of approximately 300 RU as described above. Subsequently, 50 nM IL-2 was injected till the BDG17.023 or control antibody were saturated. Then the Ab-IL-2 complex was washed with PBS-T buffer for 10 sec and 1000 nM of CD25 was injected and monitored for response.
To test specific binding to CD122, BDG17.023 was immobilized to the CM5 chip to a target RU of approximately 300 RU-500 RU as described above. Subsequently, 50 nM hIL-2 was injected till the BDG17.023 antibody was saturated with hIL-2. Next the Ab-IL-2 complex was washed with PBS-T buffer for 10 sec and 1000 nM of CD122 was injected and response was monitored.

Assay [8] addresses T9, human IL-2 (human, UniProt P60568 21-153).
T9 construct: SPR used Reprokine human IL-2; the result sentences say only hIL-2 or labeled human IL-2, so the same molecule is used here; also called hIL-2; recombinant human IL-2
Nature of the assay: yeast surface display flow cytometry, 0.1 nM hIL-2, MFI normalized to expression.

Assay [9] addresses T9, human IL-2. As to the kind of experiment: yeast surface display, selection against human IL-2.

Residue numbers refer to the chain shown, from its start.

T9 sequence (P60568 21-153 limits assumed): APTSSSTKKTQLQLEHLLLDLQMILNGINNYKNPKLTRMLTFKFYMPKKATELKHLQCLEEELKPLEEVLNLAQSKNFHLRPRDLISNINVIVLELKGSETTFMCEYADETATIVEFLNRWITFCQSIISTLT
T6 sequence (heavy, as listed by the source limits assumed, chain 1 of 3): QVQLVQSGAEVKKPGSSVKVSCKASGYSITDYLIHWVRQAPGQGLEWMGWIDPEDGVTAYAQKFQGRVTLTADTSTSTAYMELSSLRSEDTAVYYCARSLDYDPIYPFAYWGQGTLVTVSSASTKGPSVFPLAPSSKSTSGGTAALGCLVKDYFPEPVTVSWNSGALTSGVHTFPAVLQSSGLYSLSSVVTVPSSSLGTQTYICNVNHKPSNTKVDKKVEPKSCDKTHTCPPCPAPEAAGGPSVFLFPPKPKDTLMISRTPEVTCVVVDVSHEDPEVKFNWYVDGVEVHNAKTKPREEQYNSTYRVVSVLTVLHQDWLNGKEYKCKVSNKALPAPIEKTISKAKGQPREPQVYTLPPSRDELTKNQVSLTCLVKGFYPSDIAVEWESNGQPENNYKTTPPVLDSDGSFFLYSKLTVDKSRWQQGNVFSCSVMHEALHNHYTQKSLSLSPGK
T6 sequence (light, as listed by the source limits assumed, chain 2 of 3): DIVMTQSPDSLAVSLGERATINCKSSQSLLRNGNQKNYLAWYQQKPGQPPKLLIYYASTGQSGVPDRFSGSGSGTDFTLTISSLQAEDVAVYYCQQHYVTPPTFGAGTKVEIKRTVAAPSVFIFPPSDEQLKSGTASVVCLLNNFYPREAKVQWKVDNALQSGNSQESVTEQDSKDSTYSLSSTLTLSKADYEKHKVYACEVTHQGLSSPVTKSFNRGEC
T6 sequence (P60568 21-153 limits assumed, chain 3 of 3): as the sequence (P60568 21-153 limits assumed) above
T1 sequence (VH, as listed by the source limits assumed, chain 1 of 3): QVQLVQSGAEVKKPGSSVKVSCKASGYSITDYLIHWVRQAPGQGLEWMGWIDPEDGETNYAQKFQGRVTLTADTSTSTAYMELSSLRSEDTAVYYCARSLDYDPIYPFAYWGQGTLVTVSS
T1 sequence (VL, as listed by the source limits assumed, chain 2 of 3): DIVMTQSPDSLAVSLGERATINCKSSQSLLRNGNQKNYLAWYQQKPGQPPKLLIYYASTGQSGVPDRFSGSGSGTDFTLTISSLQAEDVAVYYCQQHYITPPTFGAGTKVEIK
T1 sequence (P60568 21-153 limits assumed, chain 3 of 3): as the sequence (P60568 21-153 limits assumed) above
T4 sequence (heavy, as listed by the source limits assumed, chain 1 of 3): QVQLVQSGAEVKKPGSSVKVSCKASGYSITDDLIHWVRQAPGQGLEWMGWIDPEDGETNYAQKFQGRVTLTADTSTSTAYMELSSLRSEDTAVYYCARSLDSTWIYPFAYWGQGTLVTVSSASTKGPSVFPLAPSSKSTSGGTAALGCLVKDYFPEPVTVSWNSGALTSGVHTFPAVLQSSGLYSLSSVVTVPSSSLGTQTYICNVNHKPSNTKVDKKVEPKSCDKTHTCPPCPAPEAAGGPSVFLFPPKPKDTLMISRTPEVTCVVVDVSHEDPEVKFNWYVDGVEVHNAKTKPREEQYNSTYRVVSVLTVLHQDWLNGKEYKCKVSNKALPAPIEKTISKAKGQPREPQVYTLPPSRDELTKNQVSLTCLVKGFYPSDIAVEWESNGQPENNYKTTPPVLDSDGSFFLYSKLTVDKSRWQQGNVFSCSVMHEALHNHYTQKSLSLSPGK
T4 sequence (light, as listed by the source limits assumed, chain 2 of 3): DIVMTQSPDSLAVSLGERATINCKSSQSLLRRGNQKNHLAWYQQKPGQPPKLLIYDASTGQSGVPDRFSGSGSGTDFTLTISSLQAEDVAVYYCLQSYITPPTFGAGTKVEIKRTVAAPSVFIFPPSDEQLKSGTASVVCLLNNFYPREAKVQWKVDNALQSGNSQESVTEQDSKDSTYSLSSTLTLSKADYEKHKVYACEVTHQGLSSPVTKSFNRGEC
T4 sequence (P60568 21-153 limits assumed, chain 3 of 3): as the sequence (P60568 21-153 limits assumed) above
T3 sequence (VH, as listed by the source limits assumed, chain 1 of 3): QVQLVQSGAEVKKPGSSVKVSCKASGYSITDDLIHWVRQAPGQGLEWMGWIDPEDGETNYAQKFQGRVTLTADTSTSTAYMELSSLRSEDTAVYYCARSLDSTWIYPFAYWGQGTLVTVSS
T3 sequence (VL, as listed by the source limits assumed, chain 2 of 3): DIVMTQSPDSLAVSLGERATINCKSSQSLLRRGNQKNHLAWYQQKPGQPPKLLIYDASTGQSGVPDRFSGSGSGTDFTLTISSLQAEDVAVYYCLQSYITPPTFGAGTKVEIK
T3 sequence (P60568 21-153 limits assumed, chain 3 of 3): as the sequence (P60568 21-153 limits assumed) above
T8 sequence (P60568 21-153 limits assumed, one chain of several): as the sequence (P60568 21-153 limits assumed) above
T2 sequence (VH, as listed by the source limits assumed, chain 1 of 3): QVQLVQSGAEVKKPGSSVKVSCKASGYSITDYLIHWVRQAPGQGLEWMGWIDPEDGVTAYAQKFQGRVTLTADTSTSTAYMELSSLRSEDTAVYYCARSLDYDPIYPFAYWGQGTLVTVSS
T2 sequence (VL, as listed by the source limits assumed, chain 2 of 3): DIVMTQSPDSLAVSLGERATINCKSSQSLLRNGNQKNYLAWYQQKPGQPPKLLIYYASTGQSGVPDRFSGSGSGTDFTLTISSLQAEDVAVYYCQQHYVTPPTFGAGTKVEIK
T2 sequence (P60568 21-153 limits assumed, chain 3 of 3): as the sequence (P60568 21-153 limits assumed) above
T5 sequence (heavy, as listed by the source limits assumed, chain 1 of 3): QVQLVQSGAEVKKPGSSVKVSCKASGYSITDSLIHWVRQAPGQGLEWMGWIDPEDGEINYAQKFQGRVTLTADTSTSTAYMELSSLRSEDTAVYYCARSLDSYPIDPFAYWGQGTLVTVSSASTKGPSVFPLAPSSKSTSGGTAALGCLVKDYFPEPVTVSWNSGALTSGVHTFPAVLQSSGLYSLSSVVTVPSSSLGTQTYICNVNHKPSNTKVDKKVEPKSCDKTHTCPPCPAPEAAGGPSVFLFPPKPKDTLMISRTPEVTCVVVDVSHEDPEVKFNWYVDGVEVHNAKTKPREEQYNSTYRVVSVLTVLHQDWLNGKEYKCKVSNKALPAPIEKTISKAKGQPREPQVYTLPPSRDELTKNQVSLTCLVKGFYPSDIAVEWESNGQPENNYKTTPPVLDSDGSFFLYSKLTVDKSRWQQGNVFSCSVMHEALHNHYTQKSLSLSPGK
T5 sequence (light, as listed by the source limits assumed, chain 2 of 3): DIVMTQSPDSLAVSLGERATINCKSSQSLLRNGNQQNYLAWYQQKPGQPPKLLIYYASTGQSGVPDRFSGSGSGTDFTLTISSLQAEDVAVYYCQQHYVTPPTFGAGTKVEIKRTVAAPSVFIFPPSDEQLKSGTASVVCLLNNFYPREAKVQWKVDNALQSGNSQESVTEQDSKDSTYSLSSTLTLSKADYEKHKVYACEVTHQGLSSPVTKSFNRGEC
T5 sequence (P60568 21-153 limits assumed, chain 3 of 3): as the sequence (P60568 21-153 limits assumed) above
T7 sequence (VH, as listed by the source limits assumed, chain 1 of 3): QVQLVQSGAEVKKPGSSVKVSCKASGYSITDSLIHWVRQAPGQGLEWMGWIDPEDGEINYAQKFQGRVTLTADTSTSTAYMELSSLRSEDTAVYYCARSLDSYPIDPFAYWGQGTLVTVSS
T7 sequence (VL, as listed by the source limits assumed, chain 2 of 3): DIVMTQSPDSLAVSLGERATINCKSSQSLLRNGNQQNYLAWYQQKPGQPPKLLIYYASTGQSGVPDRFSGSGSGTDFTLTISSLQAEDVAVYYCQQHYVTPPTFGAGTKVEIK
T7 sequence (P60568 21-153 limits assumed, chain 3 of 3): as the sequence (P60568 21-153 limits assumed) above

B1: human CD25 (receptor, UniProt P01589 22-240, looked up)
chain: ELCDDDPPEIPHATFKAMAYKEGTMLNCECKRGFRRIKSGSLYMLCTGNSSHSSWDNQCQCTSSATRNTTKQVTPQPEEQKERKTTEMQSPMQPVDQASLPGHCREPPPWENEATERIYHFVVGQMVYYQCVQGYRALHRGPAESVCKMTHGKTRWTQPQLICTGEMETSQFPGEEKPQASPEGRPESETSCLVTTTDFQIQTEMAATMETSIFTTEYQ
notes: also called IL-2R alpha
B1: the binding result in assay [1] was “no binding (tested: 1000 nM CD25)”; in [2], “no binding”; in [3], “no binding (tested: 1000 nM)”; in assay [4], “no binding”; in assay [5], “no binding”; in assay [6] it was “no binding”. For the same molecule, the binding result (in [7]; with BDG17.023-hIL-2 complex) was “no binding (tested: 1000 nM)” each time.

B2: clone 2 (17.022) scFv, yeast surface display clone (scFv)
scFv: EIQLQQSGPELRRPGSSVKLSCKASGYNITDYLIHWVRHRPEHGLEWIGWIDPEDGETRYAQKFQSKATLTADTSSNAAYMQLSSLTPEDTATYFCARSLDSTWIYPFAYWGQGTLVTVSSGGGGSGGGGSGGGGSDIVMTQSPFSLAVSEGEMVTINCKSSQSLLRSGNQKNYLAWYQQKPGQSPKLLIYYASTGQSGVPDRFIGSGSGTDFTLTISDVQAEDLADYYCLQHYITPPTFGAGTKLELK
Turning to B2, the binding result with human IL-2 [8] is on record as “binds”.

B3: clone 5 (17.030) scFv, yeast surface display clone (scFv)
scFv: B2 scFv with W104Y, I105D, T236S
As for B3, the binding result in the assay with human IL-2 [8] is on record as “binds”.

B4: clone 6 (17.035) scFv, yeast surface display clone (scFv)
scFv: B2 scFv with W104Y, I105N, Y234W, T236S
As for B4, the binding result with human IL-2 [8] was “binds”.

B5: clone C #7 (173R5C1-17.002) (scFv)
scFv: B2 scFv with W104P
notes: Yeast surface display clone from the JES6.1 scFv library
For B5, in the assay with human IL-2 [9], the binding result is on record as “binds”.

B6: clone 1 (17.021) scFv, yeast surface display clone (scFv)
scFv: B2 scFv with Y32N, W104Y, I235Q, T236S
On to B6, for which, in the assay with human IL-2 [8], the binding result is “binds”.

B7: clone 4 (17.023) scFv, yeast surface display clone (scFv)
scFv: B2 scFv with S99Q, W104Y
For B7, the binding result with human IL-2 [8] is listed as “binds”.
